Assay results taken from article doi:10.1101/2022.05.05.490853 (bioRxiv, 2022).
Like-named read-outs stand apart in the source and are kept apart here.

Tests used:
[1] = biological target: T1, recombinant VlsE protein (vlsE cassette region of B. burgdorferi B31-5A3) (Borreliella burgdorferi B31, clone …, UniProt O06878); assay: ELISA
[2] = biological target: T1, recombinant VlsE protein (vlsE cassette …); assay: ELISA; remark: listed apart in the source

Row | Binder | binding result [1] | binding result [2]
1 | recombinant monoclonal antibody 15E2 (antibody, V domains shown) VH: QSLEESGGGLFKPTDTLTLTCTVSGIDLSSYAMIWVRQAPGKGLEWIGYIWSSGRIWYASWAKGRFTISRTSTTVDLKLASPTTEDTATYFCARLWDIWGPGTLVTVSS VL: AQVLTQTPSSVSAAVGGTVTISCQASQSLYNGVNLAWYQQKPGQPPKLLIFGASNLESGVSSRFRGSGSGTQFTLTISGVQCDDAATYYCLGEFSCSSADCLAFGGGTEVVVK | binds | 
2 | antibody in the supernatant of B cell line 15E2 (antibody, V domains shown) VH: QSLEESGGGLFKPTDTLTLTCTVSGIDLSSYAMIWVRQAPGKGLEWIGYIWSSGRIWYASWAKGRFTISRTSTTVDLKLASPTTEDTATYFCARLWDIWGPGTLVTVSS VL: AQVLTQTPSSVSAAVGGTVTISCQASQSLYNGVNLAWYQQKPGQPPKLLIFGASNLESGVSSRFRGSGSGTQFTLTISGVQCDDAATYYCLGEFSCSSADCLAFGGGTEVVVK |  | binds
3 | recombinant monoclonal antibody 1D11 (re-cloned, second most abundant VH and VL) (antibody, V domains shown) VH: QSLVESGGGLVQPEGSLTLTCKASGFSFSSGYDMCWVRQAPGKGLEYIACIDAGDDITHYASWVKGRFTVSKTSSTTVTLQLNSLTVADTATYFCGRFWDLWGPGTLVTVSS VL: SSVLTQTPSPVSAAVGGTVTINCQSSQSVYDSTWLGWYQQKPGQPPKLLIYKASNLASGVPSRFKGSGSGTHFTLTISDLECDDAATYYCVGGYSGSVDNWAFGGGTEVVVK | binds | 
4 | antibody in the supernatant of B cell line 1D11 (antibody, V domains shown) VH: QSLVESGGGLVQPEGSLTLTCKASGFSFSSGYDMCWVRQAPGKGLEYIACIDAGDDITHYASWVKGRFTVSKTSSTTVTLQLNSLTVADTATYFCGRFWDLWGPGTLVTVSS VL: SSVLTQTPSPVSAAVGGTVTINCQSSQSVYDSTWLGWYQQKPGQPPKLLIYKASNLASGVPSRFKGSGSGTHFTLTISDLECDDAATYYCVGGYSGSVDNWAFGGGTEVVVK |  | binds
5 | recombinant monoclonal antibody 17A8 (antibody, V domains shown) VH: QSVEESGGRLVTPGTPLTLTCTVSGFPLSSYSMAWVRQAPGKGLEYIGFINTDGSAYYASWAKGRITISKTSTTVELKITSPTTEDTATYFCGTGNIWGPGTLVTVSS VL: AQVLTQTPSSVSAAVGGTVTINCQASQSVSNNNVLAWFQQKPGQPPKRLIYSALTLDSGVPSRFKGSGSGTHFTLTISGVQCDDAATYYCAGGYDCSSNDCIAFGGGTEVVVK | binds | 
6 | antibody in the supernatant of B cell line 28D3 (antibody, V domains shown) VH: QSVEESGGRLVTPGTPLTLTCTVSGFSLSSYSMGWVRQAPGKGLEYIGMIISNNSTYYASWAKGRITISKTSTTVELKITSPTTEDTATYFCGTGNIWGPGTLVTVSS VL: AQVLTQTPASVSAAVGGTVTINCQASQSTSNNNALAWFQQKPGQPPKRLIYSALTLDSGVPSRFKGSGSGTHFTLTISGVQCDDAATYYCAGGYDCSSNDCITFGGGTEVVVK |  | binds
7 | recombinant monoclonal antibody 28D3 (antibody, V domains shown) VH: QSVEESGGRLVTPGTPLTLTCTVSGFSLSSYSMGWVRQAPGKGLEYIGMIISNNSTYYASWAKGRITISKTSTTVELKITSPTTEDTATYFCGTGNIWGPGTLVTVSS VL: AQVLTQTPASVSAAVGGTVTINCQASQSTSNNNALAWFQQKPGQPPKRLIYSALTLDSGVPSRFKGSGSGTHFTLTISGVQCDDAATYYCAGGYDCSSNDCITFGGGTEVVVK | binds | 
8 | antibody in the supernatant of B cell line 17A8 (antibody, V domains shown) VH: QSVEESGGRLVTPGTPLTLTCTVSGFPLSSYSMAWVRQAPGKGLEYIGFINTDGSAYYASWAKGRITISKTSTTVELKITSPTTEDTATYFCGTGNIWGPGTLVTVSS VL: AQVLTQTPSSVSAAVGGTVTINCQASQSVSNNNVLAWFQQKPGQPPKRLIYSALTLDSGVPSRFKGSGSGTHFTLTISGVQCDDAATYYCAGGYDCSSNDCIAFGGGTEVVVK |  | binds
